Measurements as given in PMC3484714 (Journal of the American Chemical Society, 2012).
Like-named read-outs stand apart in the source and are kept apart here.

B1: corrinoid iron-sulfur protein (CFeSP) from Moorella thermoacetica, heterodimer of large and small subunit (complex)
chain 1: MPLTGLEIYKQLPKKNCGECGTPTCLAFAMNLASGKASLDSCPYVSDAAREALDAAAAPPIAKVVLGAGPTAVEMGDETELFRHDKRFYHETAIAIQVSDNLSSEELKAKVEAINGLNFDRVGQHYTIQAIAIRHDADDPAAFKAAVASVAAATQLNLVLMADDPDVLKEALAGVADRKPLLYAATGANYEAMTALAKENNCPLAVYGNGLEELAELVDKIVALGHKQLVLDPGARETSRAIADFTQIRRLAIKKRFRSFGYPIIALTTAANPLDEVLQAVNYVTKYASLVVLRTDAKEHLLPLLSWRQNLYTDPQVPIRVEEKLNEIGAVNENSPVYVTTNFSLTYYSVEGEIESTKIPSYLLSVDTDGLSVLTAYADGKFEAEKIAAVMKKVDLDNKVKRHRIIIPGAVAVLKGKLEDLTGWEVIVGPREASGIVAFARANLAS
chain 2: MAVQILRDRSRAAVQKVVLGATKDQGGTRSHTIVVGGDAALPFHHFEGEIVNRPVIGMEVQDIVPDWPDVLKDPFTDVINEPGRWAQKCVAEYGADLIYLKLDGADPEGANHSVDQCVATVKEVLQAVGVPLVVVGCGDVEKDHEVLEAVAEAAAGENLLLGNAEQENYKSLTAACMVHKHNIIARSPLDINICKQLNILINEMNLPLDHIVIDPSIGGLGYGIEYSFSIMERIRLGALQGDKMLSMPVICTVGYEAWRAKEASAPVSEYPGWGKETERGILWEAVTATALLQAGAHILLMRHPEAVARVKENIDQLMVSNAY
B2: methyltransferase (MeTr) from Moorella thermoacetica, homodimer (enzyme, UniProt Q46389 1-262, looked up)
chain: MLIIGERINGMFGDIKRAIQERDPAPVQEWARRQEEGGARALDLNVGPAVQDKVSAMEWLVEVTQEVSNLTLCLDSTNIKAIEAGLKKCKNRAMINSTNAEREKVEKLFPLAVEHGAALIGLTMNKTGIPKDSDTRLAFAMELVAAADEFGLPMEDLYIDPLILPANVAQDHAPEVLKTLQQIKMLADPAPKTVLGLSNVSQNCQNRPLINRTFLAMAMACGLDAAIADACDEALIETAATAEILLNQTVYCDSFVKMFKTR

Tests used:
[1] = target: B2; test: ITC
[2] = target: B2; test: SAXS
[3] = target: B2; test: SAXS; remark: listed apart in the source
SAXS = target: the molecule itself; test: SAXS

| KD of the first binding event [1] | KD of the second binding event [1] | dH (1:1 complex) [1] | stoichiometry N [2] | stoichiometry N [3] | Binder | stoichiometry N (SAXS) |
| --- | --- | --- | --- | --- | --- | --- |
| 7.7 µM | 111 µM | 4.9 kcal/mol | 1 CFeSP heterodimer per MeTr homodimer | 2 CFeSP heterodimer per MeTr homodimer | B1 |  |
|  |  |  |  |  | B2 | 2 |
